In the Human Domainome abundance scans (Beltran et al. 2025):

B1: RanBP-type and C3HC4-type zinc finger-containing protein 1, residues 369 to 411; numbered along this chain, Q9BYM8 (parent)
chain: YHCKTPDCKGWCFFEDDVNEFTCPVCFHVNCLLCKAIHEQMNC

Variants of: B1
Test: abundance fitness (aPCA) (normalised: wild type 0, dead -1); higher = more abundant; growth selection in yeast, the domain comes from the species named
Conditions: Homo sapiens

Abundance fitness, by site and new letter:
C23: Y -0.677 | A -0.794 | L -0.89 | H -0.786 | R -0.771 | Q -0.621 | M -0.895 | K -0.529 | G -0.891 | S -0.904 | W -0.741 | E -0.82 | T -0.761 | V -0.911
F27: V -0.536 | H 0.155 | E -0.184 | R 0.005 | K 0.108 | G 0.115 | T -0.068 | W -0.147 | Q 0.059 | D -0.004 | P -0.62 | L -0.02 | M -0.159 | I -0.571 | S -0.11
H28: I -0.224 | E 0.005 | D -0.661 | A 0.081 | G -0.103 | C -0.205
N19: K 0.09 | R 0.014 | M -0.078 | C -0.118 | G -0.194 | S 0.024 | H -0.264 | T 0.09 | D -0.052 | Y -0.172 | P -0.276 | A -0.023 | W -0.152 | E 0.042 | V 0.028 | F -0.395 | Q 0.052 | L -0.081
T22: P -0.413 | F -0.261 | N -0.32 | S -0.267 | L -0.146 | K -0.102 | Q -0.118 | W -0.422 | E -0.166 | V -0.254 | D -0.343 | M -0.29 | H -0.032 | I -0.243 | A -0.296 | R -0.126 | C -0.149 | G -0.658
F21: S 0.07 | T 0.03 | R -0.359 | Y -0.06 | W 0.083 | L -0.45 | H -0.665 | A 0.083 | N -0.321 | V 0.06 | G -0.291 | K -0.285 | C -0.186 | D -0.211 | E -0.501 | Q -0.205 | P -0.688 | M -0.188 | I -0.039
P24: I -1.09 | H -0.676 | D -0.36 | V -0.774 | K -0.287 | C -0.658 | N -0.233 | Q -0.099 | A -0.558 | G -0.389 | L -0.681 | R -0.39 | T -0.324 | E -0.277
E20: D -0.347 | M -0.1 | R -0.255 | K -0.202 | C -0.303 | H -0.332 | S -0.222 | L -0.163 | T -0.119 | G -0.457 | Q -0.206 | A -0.311 | F -0.122 | N -0.276 | P -0.83 | V -0.391 | I -0.465
C26: M -1.05 | K -0.834 | D -0.567 | V -1.03 | A -0.713 | N -0.708 | Y -0.77 | S -0.804 | P -1 | W -1.07 | R -0.754 | G -0.757 | I -0.783 | L -0.792 | H -0.537 | T -0.921
V25: S -0.225 | P -0.76 | H -0.093 | G -0.49 | C -0.181 | R -0.242 | T -0.36 | L -0.113 | I -0.057 | W -0.406 | A -0.136 | Y -0.221 | K -0.112 | M -0.298 | Q -0.17 | E -0.138 | D -0.142
V18: N -0.267 | T -0.01 | S -0.055 | P 0.048 | W -0.458 | Q 0.06 | R 0.069 | G -0.276 | F -0.272 | H -0.277 | I 0.099 | K -0.001 | M -0.14
